Reference: the DeepSol protein solubility set

Assay: soluble on expression in E. coli; label from the status in PepcDB or PDB records

Row | Sequence | soluble on expression in E. coli
1 | MALPLPDPSEQAYSDTLKTMLHERIAHSGGWISFADYMETVLYTPETGYYSGGAAKFGTAGDFVTAPEISPLFGQALARQIAPILSAVNQGSILEFGAGSGKLAVDLLCALEELNNLPQHYYILDLSADLQQRQRAMIEQHIPHLASRVSWLSALPEQFEGLILANEVLDAMPVHLVAWQNGNIAERGVIWKDQGPVWQDQPLAAGELLDVARQLPPADQFSYPLYISEISLTNRHFICSLAMLLQRGAILLVDYGFGQNEYYHPQRHQGTLMCHYRHHAHDDPFFLPGLQDITSHVDFSTIARTALDSGLQLAGYTTQAHFLINCGITDLLARTPADQPGSYLPLVSQVQRLVSPAEMGELFKVMVLSRDIDIDAASCGFTRGDLRRLLLEHHHHHH | not soluble
2 | MALRSVCRWHNGEPAVLSSYGLRVRLSRMEDQCRVLAAAVETLDDVFYVYDADGKLAYWNARLNELFGLTDGELSGMDPTEFFVADDRAAVEAAIEDVFESGQTSVEARAETTEGVVTFELSGRLLTGDDGTVQGFSGVGRDIT | not soluble
3 | MALSLYEKMLHKGMIIKNSNVYEKIKEIDTIIFDKTGTLTYGTPIVTQFIGDSLSLAYAASVEALSSHPIAKAIVKYAKEQGVKILEVKDFKEISGIGVRGKISDKIIEVKKAENNNDIAVYINGEPIASFNISDVPRPNLKDYLEKLKNEGLKIIILSGDKEDKVKELSKELNIQEYYSNLSPEDKVRIIEKLKQNGNKVLMIGDGVNDAAALALADVSVAMGNGVDISKNVADIILVSNDIGTLLGLIKNRKRLSNAIPSN | soluble
4 | MALSTLNREVIKKNLQNEEYDVVIIGGGITGAGIALDASQRGMKVALVEMQDFAQGTSSRSTKLVHGGLRYLKQAQIKVVAETGKERAIVYENGPHVTTPEWMLLPMHKGGTFGKFTTNLGLTAYDRLAGVKKYERKKMLSKKQTLNKEPLVKKDGLKGGGYYVEYRTDDARLTIEVMKRAEENGAEILNHTKSTDFIYDSKSKVRGIEVQDLLTGEMYEINAKKVINAAGPWVDEVRKKDYTRNNKQLRLTKGVHVVIDQSKFPLRQAVYFDTEKDGRMIFAIPREGKAYVGTTDTFYDNDKTKPLTTQEDRDYLIDAINYMFPDVNVKDEDIESTWAGVRPLILEDGKDPSEISRKDEIWEGKSGLLTIAGGKLTGYRHMALEIVDLLAKRLKQEYKLTFAECKTKHTPISGGDVGGSANFESFVERKVEEGKAIGLQADVAKRLASKYGSNVDKLYNIAQIAQDKDLKLPLELYVELVYSVQNEMVFKPTDFLIRRSGKLYFNINEVKQYKDAVVEELAKLLNYTQSQQNEFTKEINIAIEEATRGNEQLAVLKLEHHHHHH | soluble
5 | MALTLAKNQTISLEKTAGTGLKKVSMGLGWDPEKASGFFGKLLGGGGGDIDLDASCIMLDADKKPLDLVWFRQLQSRDGAILHSGDNRTGEGAGDDETISVDLEKLPATVKYLVFTVNSFTGQNFEKVANAYCRIVDLGTRNELGRFDLSEKGQHTGVVMSYLSRTPSGWDFTAVGQATNGRTADDLVELAIGAVRA | not soluble
6 | MAMSKVKSITRESWILSTFPEWGSWLNEEIEQEQVAPGTFAMWWLGCTGIWLKSEGGTNVCVDFWCGTGKQSHGNPLMKQGHQMQRMAGVKKLQPNLRTTPFVLDPFAIRQIDAVLATHDHNDHIDVNVAAAVMQNCADDVPFIGPKTCVDLWIGWGVPKERCIVVKPGDVVKVKDIEIHALDAFDRTALITLPADQKAAGVLPDGMDDRAVNYLFKTPGGSLYHSGDSHYSNYYAKHGNEHQIDVALGSYGENPRGITDKMTSADMLRMGEALNAKVVIPFHHDIWSNFQADPQEIRVLWEIKKDRLKYGFKPFIWQVGGKFTWPLDKDNFEYHYPRGFDDCFTIEPDLPFKSFL | not soluble
7 | MAMTKNTRFSPEVRQRAVRMVLESQGEYDSQWATICSIAPKIGCTPETLRVWGLRQHERDTGGGDGGLTTAERQRLKEPERENRELRRSNDILRQASAYFAKAEFDRLWKKLEHHHHHH | soluble
8 | MAMTLVRRDARPMELTPFRTWSPFTLVDEVNRLFEEAFSDLVRPAAAYVAPADLYETDEALILEMAVPGMTPEDLEVSLEGNKLTIRGQVKPVADERVRRYYLQEMAHGSFVRTFTLPVEVDASGVKAEFRNGILRLTLPKVAEARARRIPIEVVQ | soluble
9 | MANCENNPWKKNAWGKNEETAEEPIVSFADVLSEEFIEDLSVQEKLEEERYMKQLDQMFGDTSVSDDQLPINTEGMTDEEVALALQRHFDREADVARAVGSSSSVHFTPDRYHPKTMQETDSENEDDDALRQAATDMLYAKLDEENATNSRLRPEGPSTSRTKHDTGVSGRRNADKTFNDRNTLPTGDMVGDKLNNKVFNKLMAFGKSESKRQMRNKDKEEKATMDTSVDSDTRLLLLKWINQGVFDSVDGIIATGKESAVLHAAQDSATSYAIKVYKTTLSEFKNRSEYVKDDFRFKNPRGVLKIWAEREFMNLSRMAKHGLPCPQPVKVRRNVLVMSFLGDQGLAAPRLKNVEWEFFTDDERRNVYDQVQSIMCRMYKECLLVHADLSEFNLLLTPDNKVHVIDVSQAMDLSHPRSLQFLTRDIQNIITFFTRIGTPNLPTYVQLFNLITDLDMVEDHDLLVQVEQFSEENRSVDLRHDKSRPADMELKKYNEEKKANRGISPAREYN | not soluble
10 | MANHARVVRGGEMASAQWLQALAAGVEPEVRMNPVLVKPFGERGAQVVVWGKVDPFLSGLPWKERRPHLEAPVREALEGLLAEYDLLVLEGAGSPVERNLWPDLPNLRVAEWADAKALLVADVDQGGALGALYGTWALLGEHRKRLIGFAFNKFRGDLELLKPAYALLRDWTGLPVLGTLPLLPLALPEEDGFRYRQPAGNGPKVALLRYPHAANLDEFWPLSELAQVVYAHSPEEAEGAWLLILPGSRLPARDLPWLRAFLPLIQRHLEAGKPVLAVCGGAEMLSEALLDEEGVEERGHFPGLGLLPYRVRMAREKTVERRRVRLRGLSGYWGRLEGLEVEGYEIHHGQGLPLFHQEGSLLATWLHGLLENPGVQKALFGREARGLEEGLEALADALERHLDLRALHRALGLTGRAFPASPTEAKAPVGCPDPPPPPGLVLLLGGAKSGKSRFAQRLAGPFATLVATAEARDEEMAEKIRRHQEERPPTWETLEAPLDLVGALKRARHPTVVVDCLTLWVANLMERGLDPLLEARRFLSAVEESGKRVIAVSNEVGMGIVPQNPLARRYRDLLGQVNALLAEAAQEAYLLVAGRALPLGGGKVPAQEAKRPGSHGGEPGPGRSRDPGP | soluble
11 | MANLGMTGVADGNNSEQTYLGQINYQDQTITKASAKKLNREIDLQRASQLTLWAMPMVGMYQSYNSTIALFDLQEGDAPIIGLHEGYDGVYPFLTANVTTPYTISLVDLSETGPYVVNIPAGSIFGVANNAWQEPIKEIGSGNKETLLFVGPGQEYPKDFDGEVIQSDTNQILYFYRVLGVGAEAEKLKTAVTAYKLSDVANPPQVKFVIYKPKASDADVTIATQPRGMAYWEVVNQYIQNEPMADRDRFFYAWLKDLGIEKGKAFNPTPYQKEILLEGVNTGMAMAQSLAFNKTKKKFSSSLYGSDSGWEGVLAGMDPKIDLDTYSMINERTAYTYEAVTTSAGMIVENPGHGSAYIGSYYDADGNALMGGKNYTLHIEPNPPAANFWSITVYDIKNRLIIRNEIKRSDLSSRSESLVMNSDGSVDLYFGPEAPEGKEGNWIQSNDGESYFMYLRLYGPEQEYFDQTYPMNKIDKTKLEHHHHHH | not soluble
12 | MANPKLPGISESEQALLYAKLNEYNRGRASFKEAGVYLVVLPRPGKPNYSLWLYSPLPEKQSILYIHDLSPDINESLRIASTMFYYSRRCLILMDYNEKRMQSNGDDLIFFGKYRGHFLHEILKVDPAYLSWIAYKFTPKIPKQERFVKIAQAYHSVHLDVMLRKSKEVRRKSRYLGEVNEKLTDLKLKVMRVRLEDDPYKTRVYGTTPQFFVKQILTLNDASGNLVTMSIPSKTPSTVSCTLSGIEHEYRPGEIIYVASARVSRLFESYGSKYTRLSNVKLAIVNAWSSRL | not soluble
13 | MANQHANHSINDFKQFVKKHPKLIKEVRKEQRSWQDVYENWVLFGESDPIWDPYREPEEASEAVPETPQKNDFVSKMVTAVKKMDVNQMNEQINKMSQSISSLQSLLNTFSGSGQKHSQPGSGQHPFSFRKDLEHHHHHH | soluble
